{"source": "paper PMC3877283", "about": "“Development of Novel Radiogallium-Labeled Bone Imaging Agents Using Oligo-Aspartic Acid Peptides as Carriers” (PLoS ONE, 2013)", "test": "Biodistribution experiments in normal mice", "format": "in vivo, ddY mice", "settings": "for F/B ratio (Femur:blood ratio) / tissue uptake dose at 1 h / tissue uptake dose at 3 h / tissue uptake dose at 10 min: male ddY mice, no pretreatment, mean (SD) for four or five animals", "procedure": "Experiments with animals were conducted in strict accordance with the Guidelines for the Care and Use of Laboratory Animals of Kanazawa University. The animal experimental protocols used were approved by the Committee on Animal Experimentation of Kanazawa University (Permit Number: AP-132633). Biodistribution experiments were performed after an intravenous administration of each diluted tracer solution (37 kBq/100 µL) to 6-week-old male ddY mice (27–32 g, Japan SLC, Inc., Hamamatsu, Japan). To investigate the effect of an excess amount of bisphosphonate on biodistribution, alendronate (20 mg/kg) was intravenously administered to mice 1 minute before the intravenous injection of ^67Ga-DOTA-(Asp)14 or ^67Ga-DOTA-Bn-SCN-HBP. Four to six mice each were sacrificed by decapitation at 10, 60, and 180 minutes post-injection. Tissues of interest were removed and weighed. Complete left femurs were isolated as representative bone samples, radioactivity was determined using an auto well gamma counter, and counts were corrected for background radiation and physical decay during counting.", "note": "Where two headings read alike, the source gives them in different places. Peptide text beside a SMILES is read from it. * marks the point of attachment. DOTA = O=C(O)CN1CCN(CC(=O)O)CCN(CC(=O)*)CCN(CC(=O)O)CC1"}
{"smiles": "O=C(O)C[C@H](NC(=O)[C@H](CC(=O)O)NC(=O)[C@H](CC(=O)O)NC(=O)[C@H](CC(=O)O)NC(=O)[C@H](CC(=O)O)NC(=O)[C@H](CC(=O)O)NC(=O)[C@H](CC(=O)O)NC(=O)[C@H](CC(=O)O)NC(=O)[C@H](CC(=O)O)NC(=O)[C@H](CC(=O)O)NC(=O)[C@H](CC(=O)O)NC(=O)[C@H](CC(=O)O)NC(=O)[C@H](CC(=O)O)NC(=O)[C@H](CC(=O)O)NC(=O)CN1CCN(CC(=O)O)CCN(CC(=O)O)CCN(CC(=O)O)CC1)C(=O)O", "note": "[67Ga-DOTA-(Asp)14, metal not drawn] ({DOTA}-DDDDDDDDDDDDDD-OH)", "values": [{"measurement": "F/B ratio (Femur:blood ratio)", "setting": "10 min after i.v. administration", "result": "6.27 (0.66)"}, {"measurement": "F/B ratio (Femur:blood ratio)", "setting": "60 min after i.v. administration", "result": "185.54 (46.89)"}, {"measurement": "F/B ratio (Femur:blood ratio)", "setting": "180 min after i.v. administration", "result": "591.08 (221.41)"}, {"measurement": "tissue uptake dose at 1 h", "setting": "male, ddY, mouse, in vivo, iv, 37 kBq/100 uL, total radioactivity, Blood, 60 min after i.v. administration, read-out: Radioactivity in Blood", "result": 0.07, "unit": "%ID"}, {"measurement": "tissue uptake dose at 3 h", "setting": "male, ddY, mouse, in vivo, iv, 37 kBq/100 uL, total radioactivity, Blood, 180 min after i.v. administration, read-out: Radioactivity in Blood", "result": 0.03, "unit": "%ID"}, {"measurement": "tissue uptake dose at 10 min", "setting": "male, ddY, mouse, in vivo, iv, 37 kBq/100 uL, total radioactivity, Bone (complete left femur), 10 min after i.v. administration, read-out: Radioactivity in Bone (Femur)", "result": 10.1, "unit": "%ID"}, {"measurement": "tissue uptake dose at 1 h", "setting": "male, ddY, mouse, in vivo, iv, 37 kBq/100 uL, total radioactivity, Bone (complete left femur), 60 min after i.v. administration, read-out: Radioactivity in Bone (Femur)", "result": 12.8, "unit": "%ID"}, {"measurement": "tissue uptake dose at 3 h", "setting": "male, ddY, mouse, in vivo, iv, 37 kBq/100 uL, total radioactivity, Bone (complete left femur), 180 min after i.v. administration, read-out: Radioactivity in Bone (Femur)", "result": 13.3, "unit": "%ID"}, {"measurement": "tissue uptake dose at 10 min", "setting": "male, ddY, mouse, in vivo, iv, 37 kBq/100 uL, total radioactivity, Brain, 10 min after i.v. administration, read-out: Radioactivity in Brain", "result": 0.05, "unit": "%ID"}, {"measurement": "tissue uptake dose at 1 h", "setting": "male, ddY, mouse, in vivo, iv, 37 kBq/100 uL, total radioactivity, Brain, 60 min after i.v. administration, read-out: Radioactivity in Brain", "result": 0.01, "unit": "%ID"}, {"measurement": "tissue uptake dose at 3 h", "setting": "male, ddY, mouse, in vivo, iv, 37 kBq/100 uL, total radioactivity, Brain, 180 min after i.v. administration, read-out: Radioactivity in Brain", "result": 0.01, "unit": "%ID"}, {"measurement": "tissue uptake dose at 10 min", "setting": "male, ddY, mouse, in vivo, iv, 37 kBq/100 uL, total radioactivity, Heart, 10 min after i.v. administration, read-out: Radioactivity in Heart", "result": 0.62, "unit": "%ID"}, {"measurement": "tissue uptake dose at 1 h", "setting": "male, ddY, mouse, in vivo, iv, 37 kBq/100 uL, total radioactivity, Heart, 60 min after i.v. administration, read-out: Radioactivity in Heart", "result": 0.06, "unit": "%ID"}, {"measurement": "tissue uptake dose at 3 h", "setting": "male, ddY, mouse, in vivo, iv, 37 kBq/100 uL, total radioactivity, Heart, 180 min after i.v. administration, read-out: Radioactivity in Heart", "result": 0.03, "unit": "%ID"}, {"measurement": "tissue uptake dose at 10 min", "setting": "male, ddY, mouse, in vivo, iv, 37 kBq/100 uL, total radioactivity, Kidney, 10 min after i.v. administration, read-out: Radioactivity in Kidney", "result": 12.4, "unit": "%ID"}, {"measurement": "tissue uptake dose at 1 h", "setting": "male, ddY, mouse, in vivo, iv, 37 kBq/100 uL, total radioactivity, Kidney, 60 min after i.v. administration, read-out: Radioactivity in Kidney", "result": 0.99, "unit": "%ID"}, {"measurement": "tissue uptake dose at 3 h", "setting": "male, ddY, mouse, in vivo, iv, 37 kBq/100 uL, total radioactivity, Kidney, 180 min after i.v. administration, read-out: Radioactivity in Kidney", "result": 0.76, "unit": "%ID"}, {"measurement": "tissue uptake dose at 10 min", "setting": "male, ddY, mouse, in vivo, iv, 37 kBq/100 uL, total radioactivity, Large-intestine, 10 min after i.v. administration, read-out: Radioactivity in Large-intestine", "result": 0.3, "unit": "%ID"}, {"measurement": "tissue uptake dose at 1 h", "setting": "male, ddY, mouse, in vivo, iv, 37 kBq/100 uL, total radioactivity, Large-intestine, 60 min after i.v. administration, read-out: Radioactivity in Large-intestine", "result": 0.04, "unit": "%ID"}, {"measurement": "tissue uptake dose at 3 h", "setting": "male, ddY, mouse, in vivo, iv, 37 kBq/100 uL, total radioactivity, Large-intestine, 180 min after i.v. administration, read-out: Radioactivity in Large-intestine", "result": 0.15, "unit": "%ID"}, {"measurement": "tissue uptake dose at 10 min", "setting": "male, ddY, mouse, in vivo, iv, 37 kBq/100 uL, total radioactivity, Liver, 10 min after i.v. administration, read-out: Radioactivity in Liver", "result": 0.39, "unit": "%ID"}, {"measurement": "tissue uptake dose at 1 h", "setting": "male, ddY, mouse, in vivo, iv, 37 kBq/100 uL, total radioactivity, Liver, 60 min after i.v. administration, read-out: Radioactivity in Liver", "result": 0.05, "unit": "%ID"}, {"measurement": "tissue uptake dose at 3 h", "setting": "male, ddY, mouse, in vivo, iv, 37 kBq/100 uL, total radioactivity, Liver, 180 min after i.v. administration, read-out: Radioactivity in Liver", "result": 0.05, "unit": "%ID"}, {"measurement": "tissue uptake dose at 10 min", "setting": "male, ddY, mouse, in vivo, iv, 37 kBq/100 uL, total radioactivity, Lung, 10 min after i.v. administration, read-out: Radioactivity in Lung", "result": 1.19, "unit": "%ID"}, {"measurement": "tissue uptake dose at 1 h", "setting": "male, ddY, mouse, in vivo, iv, 37 kBq/100 uL, total radioactivity, Lung, 60 min after i.v. administration, read-out: Radioactivity in Lung", "result": 0.08, "unit": "%ID"}, {"measurement": "tissue uptake dose at 3 h", "setting": "male, ddY, mouse, in vivo, iv, 37 kBq/100 uL, total radioactivity, Lung, 180 min after i.v. administration, read-out: Radioactivity in Lung", "result": 0.03, "unit": "%ID"}, {"measurement": "tissue uptake dose at 10 min", "setting": "male, ddY, mouse, in vivo, iv, 37 kBq/100 uL, total radioactivity, Muscle, 10 min after i.v. administration, read-out: Radioactivity in Muscle", "result": 0.57, "unit": "%ID"}, {"measurement": "tissue uptake dose at 1 h", "setting": "male, ddY, mouse, in vivo, iv, 37 kBq/100 uL, total radioactivity, Muscle, 60 min after i.v. administration, read-out: Radioactivity in Muscle", "result": 0.08, "unit": "%ID"}, {"measurement": "tissue uptake dose at 3 h", "setting": "male, ddY, mouse, in vivo, iv, 37 kBq/100 uL, total radioactivity, Muscle, 180 min after i.v. administration, read-out: Radioactivity in Muscle", "result": 0.05, "unit": "%ID"}, {"measurement": "tissue uptake dose at 10 min", "setting": "male, ddY, mouse, in vivo, iv, 37 kBq/100 uL, total radioactivity, Pancreas, 10 min after i.v. administration, read-out: Radioactivity in Pancreas", "result": 0.5, "unit": "%ID"}, {"measurement": "tissue uptake dose at 1 h", "setting": "male, ddY, mouse, in vivo, iv, 37 kBq/100 uL, total radioactivity, Pancreas, 60 min after i.v. administration, read-out: Radioactivity in Pancreas", "result": 0.07, "unit": "%ID"}, {"measurement": "tissue uptake dose at 3 h", "setting": "male, ddY, mouse, in vivo, iv, 37 kBq/100 uL, total radioactivity, Pancreas, 180 min after i.v. administration, read-out: Radioactivity in Pancreas", "result": 0.03, "unit": "%ID"}, {"measurement": "tissue uptake dose at 10 min", "setting": "male, ddY, mouse, in vivo, iv, 37 kBq/100 uL, total radioactivity, Small-intestine, 10 min after i.v. administration, read-out: Radioactivity in Small-intestine", "result": 0.38, "unit": "%ID"}, {"measurement": "tissue uptake dose at 1 h", "setting": "male, ddY, mouse, in vivo, iv, 37 kBq/100 uL, total radioactivity, Small-intestine, 60 min after i.v. administration, read-out: Radioactivity in Small-intestine", "result": 0.08, "unit": "%ID"}, {"measurement": "tissue uptake dose at 3 h", "setting": "male, ddY, mouse, in vivo, iv, 37 kBq/100 uL, total radioactivity, Small-intestine, 180 min after i.v. administration, read-out: Radioactivity in Small-intestine", "result": 0.05, "unit": "%ID"}, {"measurement": "tissue uptake dose at 10 min", "setting": "male, ddY, mouse, in vivo, iv, 37 kBq/100 uL, total radioactivity, Spleen, 10 min after i.v. administration, read-out: Radioactivity in Spleen", "result": 0.42, "unit": "%ID"}, {"measurement": "tissue uptake dose at 1 h", "setting": "male, ddY, mouse, in vivo, iv, 37 kBq/100 uL, total radioactivity, Spleen, 60 min after i.v. administration, read-out: Radioactivity in Spleen", "result": 0.07, "unit": "%ID"}, {"measurement": "tissue uptake dose at 3 h", "setting": "male, ddY, mouse, in vivo, iv, 37 kBq/100 uL, total radioactivity, Spleen, 180 min after i.v. administration, read-out: Radioactivity in Spleen", "result": 0.03, "unit": "%ID"}, {"measurement": "tissue uptake dose at 10 min", "setting": "male, ddY, mouse, in vivo, iv, 37 kBq/100 uL, total radioactivity, Stomach (footnote b), 10 min after i.v. administration, read-out: Radioactivity in Stomach", "result": 0.24, "unit": "%ID"}, {"measurement": "tissue uptake dose at 1 h", "setting": "male, ddY, mouse, in vivo, iv, 37 kBq/100 uL, total radioactivity, Stomach (footnote b), 60 min after i.v. administration, read-out: Radioactivity in Stomach", "result": 0.1, "unit": "%ID"}, {"measurement": "tissue uptake dose at 3 h", "setting": "male, ddY, mouse, in vivo, iv, 37 kBq/100 uL, total radioactivity, Stomach (footnote b), 180 min after i.v. administration, read-out: Radioactivity in Stomach", "result": 0.02, "unit": "%ID"}, {"measurement": "tissue uptake at 1 h", "setting": "male, ddY, mouse, in vivo, iv, 37 kBq/100 uL, total radioactivity, 60 min after injection, mice, read-out: accumulation in bone", "result": "12.8 ± 1.7", "unit": "%ID/g"}, {"measurement": "tissue uptake dose at 10 min", "setting": "mouse, in vivo, iv, 37 kBq/100 uL, total radioactivity, Blood, 10 min after i.v. administration (37 kBq/100 µL), gamma counter, read-out: Radioactivity in Blood", "result": 1.61, "unit": "%ID"}]}
